From PMC2923024

Test system: hnRNP A1, P09651-2
Assay: footprinting

Question: With “GGAUGUUCUCUUCACUGUGGGAUGAGGUAGUAGGUUGUAUAGUUUUACCCUCACACCCACCACUGGGAGAUAACUAUACAAUCUACUGUCUUUCCUAACGUGAUAGAAAAGUCUGCA [pri-let-7a-1 GGG/CCC]” as the sequence, how does the binding read?
Answer: no binding
